Measured values as given in publication PMC8124269, “Antiviral Properties of the NSAID Drug Naproxen Targeting the Nucleoprotein of SARS-CoV-2 Coronavirus”.

Molecular target: SARS-CoV-2 N NTD (batch 2, monomer) (SARS-CoV-2, UniProt P0DTC9 50-173)
Assay: DLS; Anisotropy: 10 mM Tris pH 8.0, 50 mM NaCl, 2 mM beta-mercaptoethanol, thermostated (temperature not stated); DLS: 20 mM Tris pH 7.9, 100 mM NaCl, 20 C
Details: protein: recombinant; tags: N-terminal His6 (pET-28a); single strand

ATATATATCTATGTCCATATATATATAAAACACAGCGTGTGTGTGTAA (ssDNA) [48-mer ssDNA]
binding result: binds
